Residue numbers refer to the chain shown, from its start.
B1: Positive Control (hCLDN2 row) (antibody, human IgG1, kappa, V domains shown)
VH: VKLLQSGAALVPKPGDSMKMSCKASGYTFTHDIIHWVRQSHGKSLEWIGYINPYNGGTNYNEKFKTKATMTVDKPSSTAYLELTRVSSEASAIYYCATGSFDYWGQGVMVTVSS
VL: DVVLTQTPGSLSLAIGQSASISCKSSQSLLGTSGKTFLNWILQRPGQSPERLIYQVSKLYSEVPDRFSGSGSETEFTLKISRVEAEDLGVYYCWQGIHFPHTFGAGTKLELKR
notes: The sheet prints only 'Positive Control'; also called PR005080; Human Claudin-2 Antibody (PR005080)
B2: PR005397 (bispecific antibody, human IgG1, lambda, L234A L235A)
chain: EVQLVESGGGLVQPGGSLRLSCAASGFTFSSYWMHWVRQVPGKGLVWVSRISSTGSRTIYADSVKGRFTISRDNAKNTLYLQMNSLRAEDTAVYYCARGEDHDILTGYPIRGQGTTVTVSSGGGGSGGGGSGGGGSEVQLVESGGGLVQPGGSLRLSCAASGFTFSSYWMHWVRQVPGKGLVWVSRISSTGSRTIYADSVKGRFTISRDNAKNTLYLQMNSLRAEDTAVYYCARGEDHDILTGYPIRGQGTTVTVSSASEPKSSDKTHTCPPCPAPEAAGGPSVFLFPPKPKDTLMISRTPEVTCVVVDVSHEDPEVKFNWYVDGVEVHNAKTKPREEQYNSTYRVVSVLTVLHQDWLNGKEYKCKVSNKALPAPIEKTISKAKGQPREPQVCTLPPSREEMTKNQVSLSCAVKGFYPSDIAVEWESNGQPENNYKTTPPVLDSDGSFFLVSKLTVDKSRWQQGNVFSCSVMHEALHNHYTQKSLSLSPGK
heavy: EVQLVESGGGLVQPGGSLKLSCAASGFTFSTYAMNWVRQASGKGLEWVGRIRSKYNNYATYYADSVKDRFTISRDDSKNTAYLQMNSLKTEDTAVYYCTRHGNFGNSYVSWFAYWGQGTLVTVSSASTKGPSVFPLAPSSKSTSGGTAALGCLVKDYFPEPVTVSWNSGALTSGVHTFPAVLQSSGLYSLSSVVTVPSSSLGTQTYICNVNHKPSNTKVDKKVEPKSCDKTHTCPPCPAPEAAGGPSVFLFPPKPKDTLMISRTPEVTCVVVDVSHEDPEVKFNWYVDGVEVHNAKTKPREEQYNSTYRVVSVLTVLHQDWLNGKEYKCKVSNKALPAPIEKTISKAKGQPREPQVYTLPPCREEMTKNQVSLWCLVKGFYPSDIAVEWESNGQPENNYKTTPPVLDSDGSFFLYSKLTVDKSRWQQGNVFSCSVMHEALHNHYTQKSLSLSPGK
light: QAVVTQEPSLTVSPGGTVTLTCRSSTGAVTTSNYANWVQQKPGQAPRGLIGGTNKRAPWTPARFSGSLLGDKAALTLLGAQPEDEAEYFCALWYSNLWVFGGGTKLTVLGQPKAAPSVTLFPPSSEELQANKATLVCLISDFYPGAVTVAWKADSSPVKAGVETTTPSKQSNNKYAASSYLSLTPEQWKSHRSYSCQVTHEGSTVEKTVAPTECS
notes: structure 1; CD3 Fab from PR003886, CLDN18.2 VH from PR007246; LALA
B3: PR006293 (bispecific antibody, human IgG1, lambda)
chain: B2 chain with T54D, G55A, T190D, G191A, G281A
heavy: EVQLLESGGGLVQPGGSLRLSCAASGFTFSTYAMNWVRQAPGKGLEWVSRIRSKYNNYATYYADSVKDRFTISRDDSKSTLYLQMNSLRAEDTAVYYCVRHGNFGNSYVSWFAYWGQGTLVTVSSASTKGPSVFPLAPSSKSTSGGTAALGCLVKDYFPEPVTVSWNSGALTSGVHTFPAVLQSSGLYSLSSVVTVPSSSLGTQTYICNVNHKPSNTKVDKKVEPKSCDKTHTCPPCPAPEAAGAPSVFLFPPKPKDTLMISRTPEVTCVVVDVSHEDPEVKFNWYVDGVEVHNAKTKPREEQYNSTYRVVSVLTVLHQDWLNGKEYKCKVSNKALPAPIEKTISKAKGQPREPQVYTLPPCREEMTKNQVSLWCLVKGFYPSDIAVEWESNGQPENNYKTTPPVLDSDGSFFLYSKLTVDKSRWQQGNVFSCSVMHEALHNHYTQKSLSLSPGK
light: B2 light
notes: structure 1; CD3 Fab from PR001848, CLDN18.2 VH from PR007245; AAA
B4: PR006023 (bispecific antibody, human IgG1, lambda, L234A L235A)
chain: B2 chain
heavy: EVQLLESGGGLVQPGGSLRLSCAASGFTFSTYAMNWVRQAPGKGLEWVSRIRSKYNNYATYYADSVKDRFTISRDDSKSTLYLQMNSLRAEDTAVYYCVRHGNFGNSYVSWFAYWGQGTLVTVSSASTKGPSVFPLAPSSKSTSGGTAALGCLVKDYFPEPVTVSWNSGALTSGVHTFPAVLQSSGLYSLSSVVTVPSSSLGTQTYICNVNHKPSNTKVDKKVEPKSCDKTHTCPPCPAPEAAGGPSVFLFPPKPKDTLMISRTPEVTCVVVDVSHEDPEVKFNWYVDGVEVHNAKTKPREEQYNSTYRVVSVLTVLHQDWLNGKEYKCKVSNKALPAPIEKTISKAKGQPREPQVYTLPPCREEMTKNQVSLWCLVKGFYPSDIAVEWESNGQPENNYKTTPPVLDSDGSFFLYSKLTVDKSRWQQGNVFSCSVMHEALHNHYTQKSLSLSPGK
light: B2 light
notes: structure 1; CD3 Fab from PR001848, CLDN18.2 VH from PR007246; LALA
B5: PR005411 (bispecific antibody, human IgG1, lambda, L234A L235A)
chain: B2 chain with T54D, G55A, T190D, G191A
heavy: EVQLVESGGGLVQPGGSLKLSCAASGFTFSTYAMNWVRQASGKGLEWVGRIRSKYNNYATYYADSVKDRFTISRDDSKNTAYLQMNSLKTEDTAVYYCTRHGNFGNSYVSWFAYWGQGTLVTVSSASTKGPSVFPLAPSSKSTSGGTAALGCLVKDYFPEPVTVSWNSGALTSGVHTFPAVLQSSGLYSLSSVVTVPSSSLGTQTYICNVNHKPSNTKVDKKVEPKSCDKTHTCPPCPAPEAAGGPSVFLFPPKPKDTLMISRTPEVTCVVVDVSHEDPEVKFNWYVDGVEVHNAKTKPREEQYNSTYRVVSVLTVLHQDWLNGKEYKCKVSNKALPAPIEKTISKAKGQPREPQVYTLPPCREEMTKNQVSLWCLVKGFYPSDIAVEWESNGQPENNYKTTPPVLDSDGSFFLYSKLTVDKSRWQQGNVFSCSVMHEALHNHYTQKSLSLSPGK
light: B2 light
notes: structure 1; CD3 Fab from PR003886, CLDN18.2 VH from PR007245; LALA

Experiments:
human CLDN2 = molecular target: T1, human CLDN2 (human, UniProt P57739 1-230); test: FACS on HEK293 cells transiently expressing human CLDN2
T1 construct: whole, on cells; also called hCLDN2
T1 sequence (looked up): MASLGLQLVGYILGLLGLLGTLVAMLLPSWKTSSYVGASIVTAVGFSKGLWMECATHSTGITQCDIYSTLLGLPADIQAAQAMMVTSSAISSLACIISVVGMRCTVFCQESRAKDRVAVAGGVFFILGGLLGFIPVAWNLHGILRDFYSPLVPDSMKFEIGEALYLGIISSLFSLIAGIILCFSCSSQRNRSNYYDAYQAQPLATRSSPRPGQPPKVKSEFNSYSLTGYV
Procedure: Antibodies were assayed for binding affinity to human CLDN18.2 paralogous proteins by FACS (ACEA NovoCyte). CLDN1, CLDN2, CLDN3, CLDN4, CLDN6 and CLDN9 genes of the human CLDN18.2 paralogous family were transiently transfected into HEK293 cells. […] The cell density was adjusted to 10⁶ cells/mL, and 50 μL of the cell suspension was added to each well of a 96-well plate. An antibody was diluted to 60 nM with FACS buffer, and 50 μL of the antibody dilution was added to each well of the 96-well plate. After 2 h of incubation at 4° C., the plate was washed twice with FACS buffer. Then, an FACS buffer containing a secondary antibody was added. After 1 h of incubation at 4° C., the plate was washed twice with FACS buffer. The cells were resuspended in fixative solution, and run FACS.

human CLDN18.2 [1] = molecular target: T2, human CLDN18.2 (human); test: FACS on NUGC4_D8 cells
T2 construct: the HEK293 line was made with a GenScript plasmid; also called hCLDN18.2
Procedure: (§1) Antibodies were assayed for binding affinity by FACS. Test cells include HEK293/hCLDN18.2, HEK293/hCLDN18.1, NUGC4_D8 and Jurkat cells. […] The cell density was adjusted to 10⁶ cells/mL, and 50 μL of the cell suspension was added to each well of a 96-well plate. Antibodies were diluted to different concentrations with FACS buffer, and 50 μL of the antibody dilution was added to each well of the 96-well plate. After 2 h of incubation at 4° C., the plate was washed twice with FACS buffer. […] After 1 h of incubation at 4° C., the plate was washed twice with FACS buffer. The cells were resuspended in fixative solution, and then the fluorescence of the cells was monitored using an FACS instrument (ACEA NovoCyte).

human CLDN18.2 [2] = molecular target: T2, human CLDN18.2; test: cell-based or functional assay
[3] = molecular target: CLDN18.2 of SNU620 cells (methionine to leucine at amino acid 149) (human, UniProt P56856-2 1-261); test: cell-based or functional assay
human CLDN18.2 [4] = molecular target: T2, human CLDN18.2; test: FACS on HEK293/hCLDN18.2 cells
[5] = molecular target: T3, human CD3 on Jurkat cells (human, UniProt P07766 23-207); test: FACS on Jurkat cells (CD3)
T3 construct: whole, on cells; on cells it stands in the whole CD3/TCR complex; also called CD3-expressing cells
Procedure: as §1

Human CD16a(F) = Human CD16a(F) (human, UniProt P08637 17-208); test: BLI (Octet), antibody on FAB2G sensor
Procedure: (§2) The binding kinetics between proteins and antibodies was analyzed by the Biolayer Interferometry (BLI) technique using an Octet Red 96e (Fortebio) system. The rotation speed was set at 1000 rpm for the system. […] After equilibrated in the buffer for 120 s, the FAB2G sensor was allowed to bind to 2-fold serially diluted human Fc receptor protein. Finally, the FAB2G sensor was immersed in a 10 mM glycine-hydrochloric acid solution at pH 1.5 for regeneration to elute the proteins bound to the sensor. The affinity assays of antibodies for FcRn were performed under the conditions of both pH 6.0 buffer and pH 7.4 buffer. […] For the interactions of fast binding and fast dissociation, the “steady state” method was selected to fit the data to obtain KD(M) values.

Human CD32a(H) = molecular target: T4, Human CD32a(H) (human, UniProt P12318 36-218, limits assumed); test: BLI (Octet), antibody on FAB2G sensor
T4 sequence (looked up): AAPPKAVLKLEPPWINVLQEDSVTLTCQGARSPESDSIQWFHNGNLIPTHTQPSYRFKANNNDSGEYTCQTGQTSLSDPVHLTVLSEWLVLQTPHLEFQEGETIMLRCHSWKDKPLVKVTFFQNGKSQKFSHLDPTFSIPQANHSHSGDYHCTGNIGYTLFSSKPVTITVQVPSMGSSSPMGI
Procedure: as §2

Human CD32b = molecular target: T5, Human CD32b (human, UniProt P31994 46-217, limits assumed); test: BLI (Octet), antibody on FAB2G sensor
T5 sequence (looked up): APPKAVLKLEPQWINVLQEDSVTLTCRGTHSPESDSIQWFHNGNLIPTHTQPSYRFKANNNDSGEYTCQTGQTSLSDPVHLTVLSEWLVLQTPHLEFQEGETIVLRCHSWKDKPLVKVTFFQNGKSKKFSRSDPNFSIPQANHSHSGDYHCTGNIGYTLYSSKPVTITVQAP
Procedure: as §2

Human CD64 [6] = molecular target: T6, Human CD64 (human, UniProt P12314 16-288, limits assumed); test: BLI (Octet), antibody on FAB2G sensor, 1:1 global fit
T6 construct: bought recombinant protein
Procedure: as §2

Human CD16a(V) [7] = molecular target: T7, Human CD16a(V) (human, UniProt P08637 17-208); test: BLI (Octet), antibody on FAB2G sensor, steady state fit
Procedure: as §2

Human FcRn = Human FcRn (human, UniProt P55899 24-297; P61769 21-119); test: BLI (Octet), antibody on FAB2G sensor, pH 6.0, 1:1 global fit; pH 6.0; 400-25 nM
Procedure: as §2

human CLDN18.2 [8] = molecular target: T2, human CLDN18.2; test: competition FACS on HEK293/hCLDN18.2 cells; competitor 10 nM biotinylated PR000400
Procedure: (§3) This example is to study the binding of anti-human CLDN18.2 bispecific antibodies to the epitope region of a human CLDN18.2 antigen. Competitive binding experiments were performed at the cellular level using human CLDN18.2-overexpressing HEK293/hCLDN18.2 cells. […] The mixture was well mixed and incubated at 4° C. for 30 min. 25 μL of the corresponding serially diluted non-biotinylated anti-human CLDN18.2 antibody was added. The mixture was well mixed and incubated at 4° C. for 1 h. The cells in each well were washed twice with 200 μL of pre-cooled FACS buffer (2% BSA in DPBS) and centrifuged at 500 g at 4° C. for 5 min, and then the supernatant was discarded. A fluorescent secondary antibody (Jackson ImmunoResearch, 016-540-084, 1:500) was added. The mixture was incubated at 4° C. in the absence of light for 1 h. The cells in each well were washed twice with 200 μL of pre-cooled FACS buffer (2% BSA in DPBS) and centrifuged at 500 g at 4° C. for 5 min, and then the supernatant was discarded. Finally, the cells in each well were resuspended in 200 μL of pre-cooled FACS buffer, and the fluorescence signal values were read using a ACEA_NovoCyte.

human CLDN18.2 [9] = molecular target: T2, human CLDN18.2; test: competition FACS on HEK293/hCLDN18.2 cells; competitor 200 nM biotinylated PR004549
Procedure: as §3

[10] = molecular target: T3, human CD3 on Jurkat cells; test: FACS on Jurkat cells
Procedure: as §1

Human CD64 [11] = molecular target: T6, Human CD64; test: BLI (Octet), antibody on FAB2G sensor
Procedure: as §2

Human CD16a(V) [12] = molecular target: T7, Human CD16a(V); test: BLI (Octet), antibody on FAB2G sensor
Procedure: as §2

[13] = molecular target: T8, Human CD3E (Acro, CDE-H5223) (human, UniProt P07766 23-126, biotinylated (mixed with biotin 1:3)); test: BLI (Octet), biotinylated CD3 on SA sensor, 1:1 global fit;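 note: antibodies applied as analyte in 2-fold serial dilutions, with a 180 s association phase followed by a 300 s dissociation phase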
T8 construct: also called Human CD3Ec

[14] = molecular target: T9, Cynomolgus CD3E (Acro, CDE-C5226) (cynomolgus, UniProt Q95LI5 22-117, biotinylated (mixed with biotin 1:3)); test: as above
T9 sequence (looked up): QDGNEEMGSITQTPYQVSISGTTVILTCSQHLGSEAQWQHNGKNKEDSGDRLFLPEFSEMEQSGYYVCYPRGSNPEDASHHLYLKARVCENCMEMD

Chain of Human FcRn (P55899 24-297 limits assumed, chain 1 of 2): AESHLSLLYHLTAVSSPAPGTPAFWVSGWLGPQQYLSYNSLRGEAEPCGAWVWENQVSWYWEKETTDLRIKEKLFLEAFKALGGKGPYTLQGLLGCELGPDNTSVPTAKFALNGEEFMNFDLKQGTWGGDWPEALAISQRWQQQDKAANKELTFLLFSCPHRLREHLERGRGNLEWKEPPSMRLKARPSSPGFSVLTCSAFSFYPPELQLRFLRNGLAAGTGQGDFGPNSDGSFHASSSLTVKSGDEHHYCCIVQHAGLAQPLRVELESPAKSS
Chain of Human FcRn (P61769 21-119 limits assumed, chain 2 of 2): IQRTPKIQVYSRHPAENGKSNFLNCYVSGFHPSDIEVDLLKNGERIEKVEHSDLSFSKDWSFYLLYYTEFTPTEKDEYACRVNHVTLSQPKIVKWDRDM
T7 sequence (P08637 17-208 F176V limits assumed): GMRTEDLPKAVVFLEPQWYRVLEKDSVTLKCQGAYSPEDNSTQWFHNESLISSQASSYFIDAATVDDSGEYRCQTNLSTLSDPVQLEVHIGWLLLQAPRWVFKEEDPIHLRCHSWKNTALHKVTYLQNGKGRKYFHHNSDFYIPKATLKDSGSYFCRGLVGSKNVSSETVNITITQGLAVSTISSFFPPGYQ
Chain of Human CD16a(F) (P08637 17-208 limits assumed): as the sequence (P08637 17-208 F176V limits assumed) above, with V160F counted along it
T3 sequence (P07766 23-207): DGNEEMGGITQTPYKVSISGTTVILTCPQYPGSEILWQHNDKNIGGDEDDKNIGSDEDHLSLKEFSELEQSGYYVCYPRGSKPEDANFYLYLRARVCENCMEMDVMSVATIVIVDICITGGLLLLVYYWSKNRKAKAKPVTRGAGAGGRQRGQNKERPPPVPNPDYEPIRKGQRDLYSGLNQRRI
T8 sequence (P07766 23-126 limits assumed): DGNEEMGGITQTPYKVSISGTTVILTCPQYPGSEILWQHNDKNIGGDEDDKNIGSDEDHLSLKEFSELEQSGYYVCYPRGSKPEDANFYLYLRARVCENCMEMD
T6 sequence (P12314 16-288 limits assumed): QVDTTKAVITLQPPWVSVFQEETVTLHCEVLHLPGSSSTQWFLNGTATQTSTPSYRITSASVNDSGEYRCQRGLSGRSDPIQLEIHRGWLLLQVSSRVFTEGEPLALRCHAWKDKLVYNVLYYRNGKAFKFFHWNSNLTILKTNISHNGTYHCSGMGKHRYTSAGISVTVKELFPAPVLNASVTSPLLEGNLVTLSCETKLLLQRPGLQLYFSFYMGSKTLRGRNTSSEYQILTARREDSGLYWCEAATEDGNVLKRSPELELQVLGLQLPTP
Chain of CLDN18.2 of SNU620 cells (methionine to leucine at amino acid 149) (P56856 other isoform, or with tags, fused parts or gaps limits assumed): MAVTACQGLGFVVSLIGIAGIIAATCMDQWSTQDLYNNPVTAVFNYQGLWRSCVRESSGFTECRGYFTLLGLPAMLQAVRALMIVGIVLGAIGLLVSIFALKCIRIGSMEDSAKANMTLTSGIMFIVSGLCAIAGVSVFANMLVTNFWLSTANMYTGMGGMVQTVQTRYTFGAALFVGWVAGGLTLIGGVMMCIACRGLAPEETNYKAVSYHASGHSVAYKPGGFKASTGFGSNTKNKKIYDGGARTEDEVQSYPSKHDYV

Binder	EC50 (human CLDN18.2 [1]) [nM]	TDCC, Titer EC50 (pM), NUGC4_D8 (human CLDN18.2 [2]) [pM]	TDCC, Titer EC50 (pM), SNU620 [3] [pM]	EC50 (human CLDN18.2 [4]) [nM]	binding result (Human CD16a(F))	binding result (Human CD32a(H))	binding result (Human CD32b)	Kd (Human CD64 [6]) [nM]	koff (Human CD64 [6]) [s⁻¹]	kon (Human CD64 [6]) [M⁻¹ s⁻¹]	Kd (Human CD16a(V) [7]) [nM]	Kd (Human FcRn) [nM]	koff (Human FcRn) [s⁻¹]	kon (Human FcRn) [M⁻¹ s⁻¹]	IC50 (human CLDN18.2 [8]) [nM]	Maximum inhibition rate (%) (human CLDN18.2 [8])	IC50 (human CLDN18.2 [9]) [nM]	Maximum inhibition rate (%) (human CLDN18.2 [9])	EC50 [10] [nM]	other results
B1	–	–	–	–	–	–	–	–	–	–	–	–	–	–	–	–	–	–	–	binding result (human CLDN2): binds
B2	27.5	10	31.6	12.8	no binding (tested: 10000-625 nM)	no binding (tested: 10000-625 nM)	no binding (tested: 10000-625 nM)	50.6	0.0438	866000	1800	182	0.0586	322000	81.8	98.4	67.5	48	–	binding result [5]: binds
B3	78	87	18.5	–	no binding (tested: 10000-625 nM)	no binding (tested: 10000-625 nM)	no binding (tested: 10000-625 nM)	–	–	–	–	217	0.0632	291000	132	97.8	100	48	65	TDCC, Titer EC50 (pM), IM95 (human CLDN18.2 [2]): 460 pM; binding result (Human CD64 [11]): no binding (tested: 800-50 nM); binding result (Human CD16a(V) [12]): no binding (tested: 6000-375 nM); Kd [13]: 31.7 nM; koff [13]: 0.00216 s⁻¹; kon [13]: 68100 M⁻¹ s⁻¹; Kd [14]: 32.4 nM; koff [14]: 0.00197 s⁻¹; kon [14]: 60700 M⁻¹ s⁻¹
B4	31.3	48.5	–	–	no binding (tested: 10000-625 nM)	no binding (tested: 10000-625 nM)	no binding (tested: 10000-625 nM)	53.9	0.0471	874000	3000	210	0.0626	298000	–	–	–	–	40.6	–
B5	20.5	11	38.5	16	no binding (tested: 10000-625 nM)	no binding (tested: 10000-625 nM)	no binding (tested: 10000-625 nM)	47.1	0.0417	885000	2300	215	0.0644	300000	122	96.2	74.4	48	85.9	–
